To fix the notation:
B1: 22008 (protein)
chain: MALPVTALLLPLALLLHAARPQLQLQESGPGLVKPSETLSLTCTVSGDSISSGDYYWGWIRQPPGKGLEWIGHIYYSGVTYYNPSLKSRVTISVDTSRNQFSLKLSSVTAADTAVYYCTREDSSNWRSRGQGTLVTVSSLEDLKNVFPPEVAVFEPSEAEISHTQKATLVCLATGFYPDHVELSWWVNGKEVHSGVCTDPQPLKEQPALNDSRYCLSSRLRVSATFWQNPRNHFRCQVQFYGLSENDEWTQDRAKPVTQIVSAEAWGRADCGFTSESYQQGVLSATILYEILLGKATLYAVLVSALVLMAMVKRKDSRGRAKRSGSGATNFSLLKQAGDVEENPGPTSMDWIWRILFLVGAATGAHSFEVQLLESGGGLVQPGGSLRLSCAASGFIFSSYAMSWVRQAPGKGQEWVSGVSGTGVNTYYADSVKGRFTISRDNSKNTLYLQMNSLRAEDTAVYYCASGKGWDSGSWYEDYRGQGTLVTVSSTRIQNPDPAVYQLRDSKSSDKSVCLFTDFDSQTNVSQSKDSDVYITDKCVLDMRSMDFKSNSAVAWSNKSDFACANAFNNSIIPEDTFFPSPESSCDVKLVEKSFETDTNLNFQNLSVIGFRILLLKVAGFNLLMTLRLWSSRAKRSGSGVKQTLNFDLLKLAGDVESNPGPSRGHMTEYKPTVRLATRDDVPRAVRTLAAAFADYPATRHTVDPDRHIERVTELQELFLTRVGLDIGKVWVADDGAAVAVWTTPESVEAGAVFAEIGPRMAELSGSRLAAQQQMEGLLAPHRPKEPAWFLATVGVSPDHQGKGLGSAVVLPGVEAAERAGVPAFLETSAPRNLPFYERLGFTVTADVEVPEGPRTWCMTRKPGA
B2: 21995 (protein)
chain: MALPVTALLLPLALLLHAARPQLQLQESGPGLVKPSETLSLTCTVSGDSISSGDYYWGWIRQPPGKGLEWIGHIYYSGVTYYNPSLKSRVTISVDTSRNQFSLKLSSVTAADTAVYYCTREDSSNWRSRGQGTLVTVSSLEDLKNVFPPEVAVFEPSEAEISHTQKATLVCLATGFYPDHVELSWWVNGKEVHSGVCTDPQPLKEQPALNDSRYCLSSRLRVSATFWQNPRNHFRCQVQFYGLSENDEWTQDRAKPVTQIVSAEAWGRADCGFTSESYQQGVLSATILYEILLGKATLYAVLVSALVLMAMVKRKDSRGRAKRSGSGATNFSLLKQAGDVEENPGPTSMDWIWRILFLVGAATGAHSFEVQLLESGGGLVQPGGSLRLSCAASGFIFSIYAMSWVRQAPGKGLEWVSGISGSGVNTYYADSVKGRFIISRDNSRNTVYLQMNSLRADDTAVYHCANGKGWDGNTWYEDYRGQGTLVTVSSTRIQNPDPAVYQLRDSKSSDKSVCLFTDFDSQTNVSQSKDSDVYITDKCVLDMRSMDFKSNSAVAWSNKSDFACANAFNNSIIPEDTFFPSPESSCDVKLVEKSFETDTNLNFQNLSVIGFRILLLKVAGFNLLMTLRLWSSRAKRSGSGVKQTLNFDLLKLAGDVESNPGPSRGHMTEYKPTVRLATRDDVPRAVRTLAAAFADYPATRHTVDPDRHIERVTELQELFLTRVGLDIGKVWVADDGAAVAVWTTPESVEAGAVFAEIGPRMAELSGSRLAAQQQMEGLLAPHRPKEPAWFLATVGVSPDHQGKGLGSAVVLPGVEAAERAGVPAFLETSAPRNLPFYERLGFTVTADVEVPEGPRTWCMTRKPGA
B3: 22001 (protein)
chain: MALPVTALLLPLALLLHAARPQLQLQESGPGLVKPSETLSLTCTVSGDSISSGDYYWGWIRQPPGKGLEWIGHIYYSGVTYYNPSLKSRVTISVDTSRNQFSLKLSSVTAADTAVYYCTREDSSNWRSRGQGTLVTVSSLEPGGGGSPEDLKNVFPPEVAVFEPSEAEISHTQKATLVCLATGFYPDHVELSWWVNGKEVHSGVCTDPQPLKEQPALNDSRYCLSSRLRVSATFWQNPRNHFRCQVQFYGLSENDEWTQDRAKPVTQIVSAEAWGRADCGFTSESYQQGVLSATILYEILLGKATLYAVLVSALVLMAMVKRKDSRGRAKRSGSGATNFSLLKQAGDVEENPGPTSMDWIWRILFLVGAATGAHSFEVQLLESGGGLIQPGGSLRLSCAASGFTFSSHAMTWVRQAPGKGLEWVSAISGSGDYTHYADSVKGRFTISRDNSKNTVYLQMNSLRAEDSAVYYCAKDEDGGSLLGHRGQGTLVTVSSTRIQNPDPAVYQLRDSKSSDKSVCLFTDFDSQTNVSQSKDSDVYITDKCVLDMRSMDFKSNSAVAWSNKSDFACANAFNNSIIPEDTFFPSPESSCDVKLVEKSFETDTNLNFQNLSVIGFRILLLKVAGFNLLMTLRLWSSRAKRSGSGVKQTLNFDLLKLAGDVESNPGPSRGHMTEYKPTVRLATRDDVPRAVRTLAAAFADYPATRHTVDPDRHIERVTELQELFLTRVGLDIGKVWVADDGAAVAVWTTPESVEAGAVFAEIGPRMAELSGSRLAAQQQMEGLLAPHRPKEPAWFLATVGVSPDHQGKGLGSAVVLPGVEAAERAGVPAFLETSAPRNLPFYERLGFTVTADVEVPEGPRTWCMTRKPGA
B4: 22006 (protein)
chain: MALPVTALLLPLALLLHAARPLEGKPIPNPLLGLDSTGSGEDLKNVFPPEVAVFEPSKAEIAHTQKATLVCLATGFYPDHVELSWWVNGKEVHSGVCTDPQPLKEQPALNDSRYCLSSRLRVSATFWQNPRNHFRCQVQFYGLSENDEWTQDRAKPVTQIVSAEAWGRADCGITSASYHQGVLSATILYEILLGKATLYAVLVSALVLMAMVKRKDSRGRAKRSGSGATNFSLLKQAGDVEENPGPTSTMALPVTALLLPLALLLHAARPEVQLVESGGGLVQPGGSLRLSCTFSGGTFSSYTMGWFRQAPGKEREFVAEVRWGGVTTYSNSLKDRFSISEDSVKNAVYLQMNSLKPEDTAVYYCAAVRQMYMTVVPDYWGQGTLVTVSSTREQKLISEEDGSGIQNPDPAVYQLRDSKSSDKSVCLFTDFDSQTNVSQSKDSDVYITDKCVLDMRSMDFKSNSAVAWSNKSDFACANAFNNSIIPEDTFFPSSDVPCDVKLVEKSFETDTNLNFQNLSVIGFRILLLKVAGFNLLMTLRLWSSRAKRSGSGVKQTLNFDLLKLAGDVESNPGPSRGHMTEYKPTVRLATRDDVPRAVRTLAAAFADYPATRHTVDPDRHIERVTELQELFLTRVGLDIGKVWVADDGAAVAVWTTPESVEAGAVFAEIGPRMAELSGSRLAAQQQMEGLLAPHRPKEPAWFLATVGVSPDHQGKGLGSAVVLPGVEAAERAGVPAFLETSAPRNLPFYERLGFTVTADVEVPEGPRTWCMTRKPGA
B5: 21993 (protein)
chain: MALPVTALLLPLALLLHAARPQLQLQESGPGLVKPSETLSLTCTVSGDSISSGDYYWGWIRQPPGKGLEWIGHIYYSGVTYYNPSLKSRVTISVDTSRNQFSLKLSSVTAADTAVYYCTREDSSNWRSRGQGTLVTVSSLEDLKNVFPPEVAVFEPSEAEISHTQKATLVCLATGFYPDHVELSWWVNGKEVHSGVCTDPQPLKEQPALNDSRYCLSSRLRVSATFWQNPRNHFRCQVQFYGLSENDEWTQDRAKPVTQIVSAEAWGRADCGFTSESYQQGVLSATILYEILLGKATLYAVLVSALVLMAMVKRKDSRGRAKRSGSGATNFSLLKQAGDVEENPGPTSMDWIWRILFLVGAATGAHSFEQLQLQESGPGLVKPSETLSLTCTVSGGSISSGDYYWGWIRQPPGKGLEWIGHIYYSGATYYNPSLKSRVTISVDTSRNQFSLKLSSVTAADTAVYYCTRDDSSNWRSRGQGTLVTVSSTRIQNPDPAVYQLRDSKSSDKSVCLFTDFDSQTNVSQSKDSDVYITDKCVLDMRSMDFKSNSAVAWSNKSDFACANAFNNSIIPEDTFFPSPESSCDVKLVEKSFETDTNLNFQNLSVIGFRILLLKVAGFNLLMTLRLWSSRAKRSGSGVKQTLNFDLLKLAGDVESNPGPSRGHMTEYKPTVRLATRDDVPRAVRTLAAAFADYPATRHTVDPDRHIERVTELQELFLTRVGLDIGKVWVADDGAAVAVWTTPESVEAGAVFAEIGPRMAELSGSRLAAQQQMEGLLAPHRPKEPAWFLATVGVSPDHQGKGLGSAVVLPGVEAAERAGVPAFLETSAPRNLPFYERLGFTVTADVEVPEGPRTWCMTRKPGA

This test has as its system RAJI cells. The experiment in a line: JNG assay, co-culture with RAJI cells. Type of test: cell-based. Particulars: JNG cells expressing construct, co-culture with Raji. On the procedure:
Cellular supernatant is collected and assayed for the induction of cytokines (e.g., IL2).
JNG (Jurkat cells expressing EGFP under an NFAT promoter) were infected with lentiviral vectors encoding different single chain and multi-chain SARs by spinfection in the presence of 8 µg/ml of Polybrene® (Sigma, Catalog no. H9268). The Jurkat-NFAT-GFP cells are engineered in such a way that the IL-2 promoter, which carries NFAT binding sites, is cloned upstream of the GFP gene. These cells have been used to study signaling via TCR and CAR. The different SARs were stably expressed in Jurkat NFAT-GFP cells by lentiviral mediated gene transfer, followed by selection with puromycin or blasticidin. No drug selection was used in case the construct lacked an antibiotic resistance gene. The SAR-expressing Jurkat-NFAT-GFP cells were cocultured with the target cells at E:T ratio of approximately 1:2 for approximately 4 hours to 18 hours. When the interaction between SIRs and their target antigen results in activation of the NFAT pathway, GFP expression is induced. […] GFP expression was monitored by FACS analysis. The Jurkat-NFAT-GFP (parental) cells were used as control. The structure of different constructs can be determined based on their names. […] The sequence of the other constructs in the table can be similarly determined from their names and by referring to the different Tables of this disclosure that provide the names and SEQ ID NO of the different modules. Alternatively, the composition and modular architecture of the different SAR constructs can be determined from their sequences by bioinformatics tools, including using nucleic acid and amino acids homology searches. A SAR is considered positive in the assay in case the SAR expressing Jurkat-NFAT-GFP cells show greater % GFP positive cells when cultured with the target cell line as compared to parental Jurkat-NFAT-GFP cells. […] In general, the number +/-, +, 2+, 3+, 4+, 5+ refer to approximately 5%, 10%, 20%, 30%, 40% and 50% GFP positive cells. The % of GFP induction in the above assay is dependent not only the relative strength of the SAR but also, among other factors, on the relative level of expression of the SAR in the JNG cells and the relative level of expression of the target antigen in the target cell line. To control for the difference in gene transduction efficiency of the different SAR constructs, the experiment was conducted with JNG cells transduced with SAR constructs co-expressing a drug resistance gene (e.g., puromycin or PAC) followed by drug selection to generate a stable population of SAR-expressing cells. It is to be noted that the drug resistance gene (e.g., PAC) in the SAR constructs is optional and in vivo studies were conducted with SAR constructs lacking the PAC gene.
With B1, the “NFAT-GFP ASSAY: Raji” value is “+/- (refer to approximately 5%, 10%, 20%, 30%, 40% and 50% GFP positive cells)”.
With B2 the entry was “+ (refer to approximately 5%, 10%, 20%, 30%, 40% and 50% GFP positive cells)”.
With B3 the entry was “+/- (refer to approximately 5%, 10%, 20%, 30%, 40% and 50% GFP positive cells)”; with B4, “+ (refer to approximately 5%, 10%, 20%, 30%, 40% and 50% GFP positive cells)”.
With B5 the entry was “Raji (+/-) (refer to approximately 5%, 10%, 20%, 30%, 40% and 50% GFP positive cells)”.

Values taken from patent US20230212319A1, “NOVEL ANTIGEN BINDING DOMAINS AND SYNTHETIC ANTIGEN RECEPTORS INCORPORATING THE SAME” (University of Southern California, priority 2020, published 2023).
